From patent EP0980526B1 (IMPERIAL CANCER RESEARCH TECHNOLOGY LIMITED, dated 1998)

Target: T1, SRC1a-M1234 (human, UniProt Q15788 1-1441, [35S]-labelled)
T1 construct: range 1-1441; also called mutant SRC1
Experiment: GST pulldown, +/- 10^-6 M E2

T1 sequence (Q15788 other isoform, or with tags, fused parts or gaps limits assumed): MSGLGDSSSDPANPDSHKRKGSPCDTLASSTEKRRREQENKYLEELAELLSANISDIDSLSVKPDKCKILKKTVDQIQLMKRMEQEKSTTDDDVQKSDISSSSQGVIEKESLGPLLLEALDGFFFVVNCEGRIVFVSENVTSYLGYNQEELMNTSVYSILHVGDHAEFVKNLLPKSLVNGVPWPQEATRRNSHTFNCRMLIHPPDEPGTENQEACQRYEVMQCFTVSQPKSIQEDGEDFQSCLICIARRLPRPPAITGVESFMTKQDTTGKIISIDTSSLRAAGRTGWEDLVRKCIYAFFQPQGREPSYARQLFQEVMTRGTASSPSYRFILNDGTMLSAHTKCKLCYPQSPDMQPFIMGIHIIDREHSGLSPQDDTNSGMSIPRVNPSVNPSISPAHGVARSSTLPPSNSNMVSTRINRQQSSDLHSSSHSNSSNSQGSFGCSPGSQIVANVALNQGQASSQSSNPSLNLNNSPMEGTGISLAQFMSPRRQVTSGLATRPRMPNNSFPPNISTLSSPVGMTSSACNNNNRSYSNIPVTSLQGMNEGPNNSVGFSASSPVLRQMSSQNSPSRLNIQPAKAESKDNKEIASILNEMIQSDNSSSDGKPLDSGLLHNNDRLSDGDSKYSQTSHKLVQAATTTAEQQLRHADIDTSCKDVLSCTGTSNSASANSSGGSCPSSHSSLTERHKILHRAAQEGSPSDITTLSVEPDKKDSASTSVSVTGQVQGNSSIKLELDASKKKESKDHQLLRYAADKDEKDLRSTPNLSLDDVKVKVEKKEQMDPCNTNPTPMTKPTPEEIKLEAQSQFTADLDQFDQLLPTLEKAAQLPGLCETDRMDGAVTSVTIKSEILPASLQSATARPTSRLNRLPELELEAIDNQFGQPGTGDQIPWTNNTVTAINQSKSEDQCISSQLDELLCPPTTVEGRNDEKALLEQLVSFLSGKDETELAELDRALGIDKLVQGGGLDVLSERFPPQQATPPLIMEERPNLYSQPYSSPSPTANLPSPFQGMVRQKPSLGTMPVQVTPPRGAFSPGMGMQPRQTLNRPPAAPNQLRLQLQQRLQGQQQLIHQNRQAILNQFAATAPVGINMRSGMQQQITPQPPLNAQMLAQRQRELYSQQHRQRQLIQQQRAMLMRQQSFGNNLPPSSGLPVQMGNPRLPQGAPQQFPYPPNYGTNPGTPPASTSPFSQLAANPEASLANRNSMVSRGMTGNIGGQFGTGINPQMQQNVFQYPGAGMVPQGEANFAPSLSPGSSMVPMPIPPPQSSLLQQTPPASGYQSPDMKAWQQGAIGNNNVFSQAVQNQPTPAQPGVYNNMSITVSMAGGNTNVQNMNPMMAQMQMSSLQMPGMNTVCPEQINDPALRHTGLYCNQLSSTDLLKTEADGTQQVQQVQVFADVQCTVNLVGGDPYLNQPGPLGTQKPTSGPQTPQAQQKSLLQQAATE

B1: GST-AF2 (ligand binding domain of the mouse estrogen receptor fused to glutathione-S-transferase) (receptor, UniProt P19785 313-599, looked up)
chain: SLTADQMVSALLDAEPPMIYSEYDPSRPFSEASMMGLLTNLADRELVHMINWAKRVPGFGDLNLHDQVHLLECAWLEILMIGLVWRSMEHPGKLLFAPNLLLDRNQGKCVEGMVEIFDMLLATSSRFRMMNLQGEEFVCLKSIILLNSGVYTFLSSTLKSLEEKDHIHRVLDKITDTLIHLMAKAGLTLQQQHRRLAQLLLILSHIRHMSNKGMEHLYNMKCKNVVPLYDLLLEMLDAHRLHAPASRMGVPPEEPSQTQLATTSSTSAHSLQTYYIPPEAEGFPNTI
notes: range 313-599; Loaded on glutathione beads; tested with or without 10^-6 M E2; also called ER LBD; not shown: glutathione-S-transferase (GST)
B1: no binding.
